According to patent publication US10654925B2, “Anti-marinobufagenin antibodies and uses thereof” (priority 2018, dated 2020):

Assays:
[1] = ELISA avidity estimate on MBG-KLH; type: binding; details: wells coated with 2 μg/ml MBG-KLH; IgG
Procedure: The avidity of anti-MBG antibodies for MBG was estimated in an ELISA. Wells of a microtiter plate were coated with 2 μg/ml of either MBG-bovine serum albumin (BSA) or MBG-keyhole limpet hemocyanin (KLH). The wells were then blocked with 1% BSA. A test IgG antibody at varying concentrations (typically from about 0.0001 nM to about 25 nM) was added to the wells. The test IgG bound to immobilized MBG was detected with an anti-human Fc, horseradish peroxidase (HRP)-conjugated secondary antibody (Jackson ImmunoResearch). After washing of the wells, an appropriate HRP reagent (e.g., TMB ultra, Thermo Fisher) was added to the wells. Optical density (OD) at 450 nm was measured by a microplate reader. The concentration of test antibody at the midpoint of the binding curve is an estimate of avidity for MBG.

[2] = Competitive ELISA, relative CTS specificity, free MBG as competitor; type: binding; details: competition with immobilized MBG-BSA; normalized to MBG = 100%
Procedure: (§1) The specificity (relative affinity) of anti-MBG antibodies for MBG relative to various cardiotonic steroids (CTSs) was determined in a competitive ELISA. Each anti-MBG antibody was tested for its binding to immobilized MBG in the presence of free MBG, resibufogenin (RBG), cinobufagin (CINO), ouabain (OUB) or digoxin (DIG) as a competitor. A constant amount of an anti-MBG antibody (typically 1-5 μg/mL) and varying concentrations of each CTS (from 10^−12M to 10^−5M) were pre-incubated before being added to the MBG-BSA-coated wells. After washing of the wells, an anti-human Fc, HRP-conjugated secondary antibody (at 1:5000 dilution) was added to the wells and incubated at 37° C. for 1 hr. After washing of the wells, an appropriate HRP reagent (e.g., TMB ultra, Thermo Fisher) was added to the wells. OD at 450 nm was measured by a microplate reader. MBG at 10 μM was assumed to be 100% competed, and MBG at 1 pM was assumed to be 0% competed. The data was plotted as a titration of antibody-antigen binding relative to free CTS concentration in the competition reaction to determine the free CTS concentration (μM) giving 50% maximal binding of antibody to immobilized MBG. The relative specificity of an antibody for a CTS was normalized to MBG=100%.

[3] = Competitive ELISA, relative CTS specificity, CINO as competitor; type: binding; details: competition with immobilized MBG-BSA; normalized to MBG = 100%
Procedure: as §1

[4] = Competitive ELISA, relative CTS specificity, DIG as competitor; type: binding; details: competition with immobilized MBG-BSA; normalized to MBG = 100%
Procedure: as §1

[5] = system: pregnant Sprague-Dawley rats; test: DOCA/saline rat model of pre-eclampsia; type: in vivo; details: antibodies 2.2 mg/kg/d i.p. days 16-18 in PDS rats
Procedure: Female Sprague-Dawley rats (200-250 g, Charles River Laboratories) were acclimatized for 1 week, and mated with male Sprague-Dawley rats (275-300 g). Pregnancy was confirmed by the presence of vaginal plugs or by examination of vaginal smears. Each rat was housed separately.
Five groups of rats were studied (n=10 per group): Group 1 (NP): normal pregnant rats; Group 2 (PDS): pregnant rats injected i.p. initially with 12.5 mg of DOCA in a depot form, followed by a weekly i.p. injection of 6.5 mg of DOCA, and whose drinking water is replaced with 0.9% saline; Group 3 (NPM): Normal pregnant rats given daily injections of MBG (7.65 μg per kg body weight per day) once pregnancy was established on day four of the experiment; Group 4 (PDS-3E9): rats administered DOCA and saline as for Group 2, and also given the murine anti-MBG antibody 3E9 (2.2 mg per kg body weight per day) on days 16, 17, and 18 of pregnancy; and Group 5 (PDS-H3L2): rats administered DOCA and saline as for Group 2, and also given the humanized anti-MBG antibody H3L2 (2.2 mg per kg body weight per day) on days 16, 17, and 18 of pregnancy.
Systolic blood pressure (BP) was measured by tail cuff at days 17-19. At least 3 readings are taken after BP has stabilized, and the mean of these values was calculated. The reported BP values are the mean of the daily measurements. At 18-20 days of pregnancy, 24-hour urine was collected in the absence of food to avoid contamination of the measurement of the protein amount in urine by any fallen food particles. Each rat was housed separately in a metabolic cage during this portion of the study. The 24-hour protein excretion was measured and was normalized to creatinine. The rats were sacrificed after the last measurement on days 18-20, and blood samples were taken. The number of fetal pups was counted and examined. The mean number of pups and any developmental or histological abnormalities in the pups were assessed. Statistical analysis was performed using analysis of variance and Tukey's post hoc test. A p value ≤0.05 was considered statistically significant.

[6] = system: Na^+K^+-ATPase (NKA); test: Na^+K^+-ATPase activity (Malachite Green Phosphate Assay); type: biochemical, rat; details: anti-MBG antibodies 1-100 μg/mL; FIG. 4
Procedure: Na^+K^+-ATPase (NKA) was purified from rat heart. The NKA was collected as the sarcolemmal/particulate (SLP) fraction and frozen.
Na^+K^+-ATPase activity was measured as follows: aliquots of SLP were mixed with Reaction Buffer (200 mM Tris-HCl, pH 7.5, 200 mM NaCL, 30 mM MgCl2, 60 mM KCl, 10 mM EGTA, 100 μg/mL PMSF, 2 μg/mL pepstatin A, and 2 μg/mL aprotinin). Reactions were performed with or without MBG and with or without anti-MBG antibodies (1-100 μg/mL). Ouabain was used as positive control for NKA inhibition. Tubes were prewarmed, and ATP was added. Reactions were stopped and were placed on ice.
Phosphate was assayed using the Malachite Green Phosphate Assay. Phosphate standard or sample was added to each well of a 96-well plate, followed by Reagent A. Reagent B was added, with mixing and incubation. OD was then read at 630 nm in a microplate spectrophotometer.

[7] = system: PKC-δ in the nucleus of primary rat cardiac fibroblasts; test: Inhibition of MBG-induced PKC-δ nuclear translocation (Western blot); details: MBG 10 nM; FIG. 2b
Procedure: MBG was incubated with an anti-MBG antibody prior to addition to cultured primary rat cardiac fibroblasts. Nuclei were isolated 30 min later and analyzed for amount of PKC-6.

B1: H3L2: humanized anti-MBG antibody, VH H3 (SEQ ID NO: 11) with VL L2 (SEQ ID NO: 13) (antibody, V domains shown)
VH: EVQLQESGPGLVKPSETLSLTCTVSGDSITSGYWNWIRQPPGKGLEYMGYISYSGTTYYNPSLKSRITISRDTSKNQYSLKLSSVTAADTAVYYCARARYGYGFDYWGQGTLVTVSS
VL: DVVMTQSPLSLPVTLGQPASISCRSSQSIVHSNRNTYLEWYQQRPGQSPRLLIYKVSNRFSGVPDRFSGSGSGTDFTLKISRVEAEDVGVYYCFQGSHVPLTFGGGTKVEIK
modifications: Humanized VH sequence; Humanized VL sequence
[1]
  Estimated avidity (KA) (antibody concentration at 50% maximal binding to antigen, or EC50), Antigen 2 (MBG-KLH): 1.5 nM
[2]
  Rel. CTS Specificity as % of MBG Binding: MBG: 100%
[3]
  Rel. CTS Specificity as % of MBG Binding: CINO: 0%
[4]
  Rel. CTS Specificity as % of MBG Binding: DIG: 0%
[5]; MBG 7.65 μg/kg/d in NPM rats
  % Malformed Pups: 0%
  No. Pups: 12.9 ± 3.2
[5]; normalized to creatinine, 18-20 days of pregnancy, MBG 7.65 μg/kg/d in NPM rats
  Urine Protein: 3.5 ± 0.7 mg/24 h
[5]; tail cuff, 17-19 d of gestation, MBG 7.65 μg/kg/d in normal pregnant rats (NPM), N = 10
  Blood Pressure-Final: 109.4 ± 11 mm Hg
[6]
  inhibitory effect of MBG on NKA in presence of antibody: reduce the inhibitory effect of MBG on NKA
[7]
  PKC-δ translocation into the nucleus, MBG plus antibody: reduced
